These results are taken from patent US20090011974A1, “Scavenger Receptor B1 (Cla-1) Targeting for the Treatment of Infection, Sepsis and Inflammation” (priority 2002, published 2009).

“And” between values parts separate entries of the source, which are not always exact repeats. Identical values can stand only once. “Also recorded” adds a separate entry of the source. Where a SMILES comes first, the peptide text is derived from it.

One data set deals with THP-1 cells. The note with it: 20 μg/ml. The procedure: Assays for cytokines and lactate dehydrogenase (LD). Interleukins 6 and 8 (IL-6 and IL-8) and tumor-necrosis factor-α (TNF-α) are measured in culture supernatants of THP-1 cells using commercial ELISA kits (Biosource International, USA). LD activity was measured in the supernatants by a Hitachi 917 automated chemistry analyzer (Roche).

For data set [1], the target named is T1, CLA-1 (Homo sapiens, UniProt Q8WTV0).
T1 construct: using the expression plasmid pTRE2 (Clontech, Pal Alto, Calif.), encoding a CLA-1 protein (pTRE2-CLA-1); expressed in transfected cells; host or cells: HeLa (Tet-off) cells (Clontech), stably co-transfected with pTRE2-CLA-1 and pTK-Hyg and selected with hygromycin
T1 sequence (Q8WTV0 1-509 isoform Q8WTV0-2): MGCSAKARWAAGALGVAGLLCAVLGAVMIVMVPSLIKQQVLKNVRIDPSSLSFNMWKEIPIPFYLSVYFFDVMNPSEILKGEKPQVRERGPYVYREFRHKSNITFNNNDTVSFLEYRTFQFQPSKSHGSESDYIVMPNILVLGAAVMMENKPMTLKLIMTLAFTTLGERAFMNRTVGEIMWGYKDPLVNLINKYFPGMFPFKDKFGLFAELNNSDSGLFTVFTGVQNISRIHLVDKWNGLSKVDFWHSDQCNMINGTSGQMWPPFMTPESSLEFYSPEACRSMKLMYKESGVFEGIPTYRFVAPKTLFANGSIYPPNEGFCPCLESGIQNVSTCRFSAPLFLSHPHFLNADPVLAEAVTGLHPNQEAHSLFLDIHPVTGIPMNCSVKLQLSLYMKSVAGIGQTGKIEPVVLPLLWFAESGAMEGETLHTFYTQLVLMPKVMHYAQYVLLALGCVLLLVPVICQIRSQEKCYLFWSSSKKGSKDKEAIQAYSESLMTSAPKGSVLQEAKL
Kind of data set: FACS analysis of Alexa 488-SAA and Alexa 488-HDL uptake in HeLa cells. The format is cell-based. The note with it: CLA-1 overexpressing HeLa cells. The procedure:
Ligand-uptake experiments. Binding experiments are performed at 37° C. using concentrations between 1.25 and 30 μg/ml. All incubations are performed in DMEM containing 2 mg/ml BSA. After a 2-hr-incubation […], the cells are rinsed with ice-cold PBS and released by a 30-min incubation in EDTA containing Cell stripper (CellGro, USA). Cells are resuspended and added to an equal volume of 4% paraformaldehyde in PBS. Cell fluorescence is analyzed by FACS analyses.
(Flow cytometry measures light scatter and fluorescence of single cells or particles in a stream.)

In data set [2] the target is T1, CLA-1. Kind of data set: Competition for Alexa 488-SAA uptake in CLA-1 overexpressing and mock transfected HeLa cells (FACS). The format is binding. Particulars: mock transfected and CLA-1 overexpressing HeLa cells. On the procedure: Competition experiments. Cells are cultured for 24 hr in serum free DMEM before experiments. […] For KKB-1 anti-CLA-1 blocking experiments, cells are pre-incubated with KKB-1 rabbit anti-serum (non-immune rabbit serum as a negative control) at a dilution of 1:10 followed by ligand addition to a final concentration of 5 μg/ml and a 1-hour incubation. Cell fluorescence was analyzed by FACS analyses.

Data set [3] concerns the target T2, CLA-1 (CD36 and LIMPII Analogous-1), human scavenger receptor class B type I (human, UniProt Q8WTV0 1-552).
T2 construct: whole, on cells; Target is CLA-1 on stably transfected HeLa cells, compared with mock-transfected HeLa cells, which carry a low endogenous level of CLA-1; also called SR-BI/CLA-1; human SR-BI
T2 sequence (looked up): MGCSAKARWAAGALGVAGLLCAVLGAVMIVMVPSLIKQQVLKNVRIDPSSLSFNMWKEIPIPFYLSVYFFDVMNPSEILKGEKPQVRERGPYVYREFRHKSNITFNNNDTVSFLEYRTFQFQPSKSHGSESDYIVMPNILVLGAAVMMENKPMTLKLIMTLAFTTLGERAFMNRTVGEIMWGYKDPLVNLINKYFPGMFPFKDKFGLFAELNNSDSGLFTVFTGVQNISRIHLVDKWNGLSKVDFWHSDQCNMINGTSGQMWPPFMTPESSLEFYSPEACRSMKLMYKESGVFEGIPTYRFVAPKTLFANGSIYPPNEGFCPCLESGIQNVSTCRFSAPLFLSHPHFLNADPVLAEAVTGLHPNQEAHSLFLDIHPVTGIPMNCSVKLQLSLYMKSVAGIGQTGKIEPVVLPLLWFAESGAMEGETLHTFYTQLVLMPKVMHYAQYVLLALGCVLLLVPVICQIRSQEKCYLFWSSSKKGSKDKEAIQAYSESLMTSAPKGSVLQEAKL
Kind of data set: flow cytometry of Alexa-488 SAA uptake.

Turning to `CC(C)C[C@H](NC(=O)[C@H](Cc1c[nH]c2ccccc12)NC(=O)[C@H](CC(=O)O)NC(=O)[C@@H]1CCCN1C(=O)[C@H](Cc1ccccc1)NC(=O)[C@H](C)NC(=O)[C@H](CCC(=O)O)NC(=O)[C@H](CCCCN)NC(=O)[C@H](CC(C)C)NC(=O)[C@H](CCCCN)NC(=O)[C@H](CCC(=O)O)NC(=O)[C@H](C)NC(=O)[C@@H](NC(=O)[C@H](CCCCN)NC(=O)[C@H](CC(=O)O)NC(=O)[C@H](Cc1ccc(O)cc1)NC(=O)[C@H](Cc1ccccc1)NC(=O)[C@H](C)NC(=O)[C@H](CCCCN)NC(=O)[C@H](CC(C)C)NC(=O)[C@H](Cc1c[nH]c2ccccc12)NC(=O)[C@@H](N)CC(=O)O)C(C)C)C(=O)N[C@@H](CCCCN)C(=O)N[C@@H](C)C(=O)N[C@@H](Cc1ccccc1)C(=O)N[C@@H](Cc1ccc(O)cc1)C(=O)N[C@@H](CC(=O)O)C(=O)N[C@@H](CCCCN)C(=O)N[C@H](C(=O)N[C@@H](C)C(=O)N[C@@H](CCC(=O)O)C(=O)N[C@@H](CCCCN)C(=O)N[C@@H](CC(C)C)C(=O)N[C@@H](CCCCN)C(=O)N[C@@H](CCC(=O)O)C(=O)N[C@@H](C)C(=O)N[C@@H](Cc1ccccc1)C(=O)O)C(C)C` [Peptide L-37PA] (H-DWLKAFYDKVAEKLKEAFPDWLKAFYDKVAEKLKEAF-OH; N-terminus and C-terminus assumed), the “toxic effect (LDH release, β-actin expression)” value with THP-1 cells is on record as “no apparent toxic effect”.

B1: Serum Amyloid A1 (StressGene) (ligand, UniProt P0DJI8 19-122, looked up)
chain: RSFFSFLGEAFDGARDMWRAYSDMREANYIGSDKYFHARGNYDAAKRGPGGAWAAEVITDARENIQRFFGHGAEDSLADQAANEWGRSGKDPNHFRPAGLPEKY
notes: also called SAA; lipid-free SAA
As for B1, the “concentration at which SAA uptake plateaus” value in the data set with CLA-1 [1] was 2.5 µg/mL and 2.5 to 5 µg/mL. In the data set with CLA-1 [2], the “competition with Alexa 488-SAA for CLA-1” value is given as “efficient competitor; also recorded: competed for CLA-1 binding with Alexa 488-SAA”. The “fold increase of uptake over mock transfected HeLa cells” value in data set [3] was more than 5 fold.
